Marks after values point to notes of the source that are not given here.
Legend:
SPM-1 [1] = target: T1, SPM-1 (Pseudomonas aeruginosa, UniProt Q8G9Q0); assay: SPM-1 inhibition (residual activity, IC50), FC4 as reporter substrate; type: biochemical
From the text: To achieve clinical utility, MBL inhibitors may need to act on more than one MBL subfamily. This is potentially challenging because of the generally low sequence similarity between MBLs of different subfamilies (B1, B2, B3). […] This set of compounds was selected as a result of their previously reported inhibition of metal-binding oxygenases.[51] […] In contrast, the compounds derivatized with a Trp, Leu, Asp, or Glu residue inhibited SPM-1, with the tryptophan-functionalized chloroisoquinolinols (S)-7d and (R)-7d giving the most promising results (3% and 8% residual activity (RA) at 200 μM, respectively).
(§1) Taking into account the aforementioned requirements,
(§2) absorbance from Greiner Bio-One were used.
(§3) Determination of the steady state kinetic
(§4) concentration using the same software.
(§5) Additional tests verified

NDM-1 [2] = target: T2, NDM-1 (Klebsiella pneumoniae, UniProt C7C422); assay: biochemical
T2 sequence (C7C422 29-270 limits assumed): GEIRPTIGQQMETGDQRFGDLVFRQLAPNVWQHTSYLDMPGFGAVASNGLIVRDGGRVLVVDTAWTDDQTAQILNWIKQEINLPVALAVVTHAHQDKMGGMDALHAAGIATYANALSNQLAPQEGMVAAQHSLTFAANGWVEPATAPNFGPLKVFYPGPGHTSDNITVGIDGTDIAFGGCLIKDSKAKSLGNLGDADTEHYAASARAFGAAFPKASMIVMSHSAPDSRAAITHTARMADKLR

VIM-2 = VIM-2 (Escherichia coli, UniProt Q5U7L7); assay: biochemical
Bc II = target: T3, Bc II (Bacillus cereus, UniProt P04190); assay: Bc II inhibition IC50, FC4 as reporter substrate; type: biochemical
T3 construct: made in house; host or cells: E. coli BL21(DE3) pLysS
T3 sequence (P04190 31-257): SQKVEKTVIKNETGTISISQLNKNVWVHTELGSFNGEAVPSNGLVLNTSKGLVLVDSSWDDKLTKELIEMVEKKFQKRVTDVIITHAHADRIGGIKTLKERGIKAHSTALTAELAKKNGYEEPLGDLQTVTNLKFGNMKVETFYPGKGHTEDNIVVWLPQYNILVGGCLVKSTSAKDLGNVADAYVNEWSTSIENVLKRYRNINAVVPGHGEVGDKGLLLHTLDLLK
From the text: as §1, §2, §3, §4, §5

IMP-1 = IMP-1 (Serratia marcescens, UniProt P52699); assay: biochemical
Chain of IMP-1 (P52699 19-246 limits assumed): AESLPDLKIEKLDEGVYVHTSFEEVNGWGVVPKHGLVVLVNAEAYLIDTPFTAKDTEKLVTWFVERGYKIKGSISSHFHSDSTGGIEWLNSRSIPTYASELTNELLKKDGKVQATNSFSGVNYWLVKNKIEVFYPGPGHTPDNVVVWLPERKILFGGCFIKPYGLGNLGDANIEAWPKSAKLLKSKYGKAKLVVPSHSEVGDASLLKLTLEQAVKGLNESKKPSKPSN

[3] = Autohydrolysis and storage stability of fluorogenic substrates; type: physicochemical; conditions: for period of use when stored as solids: solids at −20 °C; for time solutions could be used: solutions stored on ice
[4] = tested on: O=C(Cc1ccccc1)N[C@@H]1C(=O)N2C(C(=O)O)=C(COc3ccc4ccc(=O)oc4c3)CS[C@H]12; assay: purified protein, by the assay type; conditions: other: NDM-1; substrate hydrolysis
[5] = tested on: C[C@@H](O)[C@H]1C(=O)N2C(C(=O)O)=C(SCCN=CN)C[C@H]12; assay: purified protein, by the assay type; conditions: substrate hydrolysis
[6] = tested on: [H][C@@]12[C@H](NC(=O)Cc3ccccc3)C(=O)N1C(C(=O)O)=C(COc1ccc3ccc(=O)oc3c1)CS2(=O)=O; assay: purified protein, by the assay type; conditions: substrate hydrolysis
[7] = tested on: O=C(Cc1ccccc1)N[C@@H]1C(=O)N2C(C(=O)O)=C(COc3ccc4ccc(=O)oc4c3)C[S+]([O-])[C@H]12; assay: purified protein, by the assay type; conditions: substrate hydrolysis
[8] = tested on: O=C(Cc1cccs1)N[C@@H]1C(=O)N2C(C(=O)O)=C(CSc3ccc([N+](=O)[O-])c(C(=O)O)c3)CS[C@H]12; assay: purified protein, by the assay type; conditions: substrate hydrolysis
[9] = tested on: O=C(Cc1cccs1)N[C@@H]1C(=O)N2C(C(=O)O)=C(/C=C/c3ccc([N+](=O)[O-])cc3[N+](=O)[O-])CS[C@H]12; assay: purified protein, by the assay type; conditions: substrate hydrolysis
NDM-1 [10] = target: T2, NDM-1; type: biochemical; parameters: His-tag (3C protease cleavable) (N, cleaved yes); made in house; host or cells: E. coli BL21(DE3) pLysS; conditions: substrate hydrolysis
From the text: as §1, §2, §3, §4

SPM-1 [11] = target: T1, SPM-1; assay: biochemical
From the text: as §1, §2, §3, §4

T1 sequence (Q8G9Q0 entry or part of it): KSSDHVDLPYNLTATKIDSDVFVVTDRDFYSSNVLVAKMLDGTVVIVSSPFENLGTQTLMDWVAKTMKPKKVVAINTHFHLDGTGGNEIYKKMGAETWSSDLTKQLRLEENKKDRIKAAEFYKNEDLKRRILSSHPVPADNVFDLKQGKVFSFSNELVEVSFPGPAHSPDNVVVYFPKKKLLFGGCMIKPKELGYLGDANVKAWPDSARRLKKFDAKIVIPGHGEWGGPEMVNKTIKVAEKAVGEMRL

In the case of `O=C(N[C@@H](Cc1c[nH]c2ccccc12)C(=O)O)c1nc(Cl)c2ccccc2c1O` [(S)-7d], the IC50 (SPM-1 [1]) is reported as 23.2 ± 1.1 µM, the IC50 (NDM-1 [2]) is reported as 61.4 ± 1.3 µM and the IC50 (VIM-2) is reported as 54.7 ± 1.4 µM. The IC50 (Bc II) was 61.3 ± 1.3 µM and the IC50 (IMP-1) was 75.6 ± 1.5 µM.

In the case of `O=C(Cc1ccccc1)N[C@@H]1C(=O)N2C(C(=O)O)=C(COc3ccc4ccc(=O)oc4c3)C[S+]([O-])[C@H]12` (stereo partly drawn) [FC4, (6R,7R)-8-Oxo-3-(((2-oxo-2H-chromen-7-yl)oxy)methyl)-7-(2-phenylacetamido)-5-thia-1-azabicyclo[4.2.0]oct-2-ene-2-carboxylic Acid 5-Oxide], the “time stable in buffer (autohydrolysis study)” value ([3]; buffer, room temperature) is reported as “at least 8 h”, the “period of use when stored as solids” value [3] is reported as “months” and the “time solutions could be used” value [3] is reported as 1 to 2 days.

With `O=C(Cc1ccccc1)N[C@@H]1C(=O)N2C(C(=O)O)=C(COc3ccc4ccc(=O)oc4c3)CS[C@H]12` [FC3] the autohydrolysis in buffer ([3]; buffer, room temperature, after 3 h) was “substantial hydrolysis”.

For NDM-1 (Klebsiella pneumoniae), the kcat/Km [4] was 5.8e+06 M⁻¹ s⁻¹, the kcat/Km ([5]; other: NDM-1) was 3.6e+06 M⁻¹ s⁻¹ and the Km ([6]; other: NDM-1) was 2.4 ± 0.2 µM. The kcat/Km ([6]; other: NDM-1) was 1.24e+08 M⁻¹ s⁻¹, the Km ([7]; other: NDM-1) was 4.0 ± 0.8 µM and the kcat/Km ([7]; other: NDM-1) was 3.2e+07 M⁻¹ s⁻¹.

SPM-1 (Pseudomonas aeruginosa) gave a kcat ([8]; other: SPM-1) of 6.1 s⁻¹, a kcat/Km ([8]; other: SPM-1) of 200000 M⁻¹ s⁻¹ and a kcat/Km ([5]; other: SPM-1) of 100000 M⁻¹ s⁻¹. The Km ([6]; other: SPM-1) was 2.7 ± 0.2 µM, the kcat/Km ([6]; other: SPM-1) was 1.03e+07 M⁻¹ s⁻¹ and the Km ([9]; other: SPM-1) was 16.0 ± 3.7 ^c μM. For the same compound, the kcat ([9]; other: SPM-1) was 0.7 s⁻¹, the kcat/Km ([9]; other: SPM-1) was 40000 M⁻¹ s⁻¹ and the Km ([7]; other: SPM-1) was 2.5 ± 0.2 µM. It also gave a kcat ([7]; other: SPM-1) of 8.7 s⁻¹ and a kcat/Km ([7]; other: SPM-1) of 3.5e+06 M⁻¹ s⁻¹.

Work on VIM-2 (Escherichia coli) yielded a kcat/Km ([8]; other: VIM-2) of 1.8e+06 M⁻¹ s⁻¹, a kcat/Km ([5]; other: VIM-2) of 1.1e+06 M⁻¹ s⁻¹ and a kcat/Km ([6]; other: VIM-2) of 1.91e+07 M⁻¹ s⁻¹. It also gave a Km ([9]; other: VIM-2) of 7.2 ± 0.6 µM, a kcat ([9]; other: VIM-2) of 226 s⁻¹ and a kcat/Km ([9]; other: VIM-2) of 3.12e+07 M⁻¹ s⁻¹. For the same compound, the Km ([7]; other: VIM-2) was 6.3 ± 0.4 µM and the kcat/Km ([7]; other: VIM-2) was 2e+07 M⁻¹ s⁻¹.

In the case of `O=C(N[C@H](Cc1c[nH]c2ccccc12)C(=O)O)c1nc(Cl)c2ccccc2c1O` [(R)-7d], the IC50 (SPM-1 [1]) is reported as 46.6 ± 1.1 µM, the IC50 (NDM-1 [2]) is reported as 47.1 ± 1.1 µM and the IC50 (VIM-2) is reported as 55.3 ± 1.3 µM. The IC50 (Bc II) was 132.4 ± 1.3 µM and the IC50 (IMP-1) was 74.1 ± 1.6 µM.

In the case of `O=C(Cc1ccccc1)N[C@@H]1C(=O)N2C(C(=O)O)=C(COc3ccc4ccc(=O)oc4c3)CS(=O)(=O)[C@H]12` [FC5, (6R,7R)-8-Oxo-3-(((2-oxo-2H-chromen-7-yl)oxy)methyl)-7-(2-phenylacetamido)-5-thia-1-azabicyclo[4.2.0]oct-2-ene-2-carboxylic Acid 5,5-Dioxide], the “time stable in buffer (autohydrolysis study)” value ([3]; buffer, room temperature) is reported as “at least 8 h”, the “period of use when stored as solids” value [3] is reported as “months” and the “time solutions could be used” value [3] is reported as 1 to 2 days.

For `O=C(O)c1ccc(O)cc1O` [β-Resorcylic acid, reference compound], the “RA 1 mM (residual activity on SPM-1)” value (SPM-1 [1]; compound at 1 mM, FC4 reporter substrate, 10 min preincubation) was 76%.

Compound BcII (Bacillus cereus) has a kcat ([8]; other: BcII) of 8.9 s⁻¹, a kcat/Km ([8]; other: BcII) of 60000 M⁻¹ s⁻¹ and a kcat/Km ([5]; other: BcII) of 400000 M⁻¹ s⁻¹. It also gave a kcat/Km ([6]; other: BcII) of 3.7e+06 M⁻¹ s⁻¹, a Km ([9]; other: BcII) of 8.1 ± 1.0 µM and a kcat ([9]; other: BcII) of 14.9 s⁻¹. It also gave a kcat/Km ([9]; other: BcII) of 1.8e+06 M⁻¹ s⁻¹ and a kcat/Km ([7]; other: BcII) of 700000 M⁻¹ s⁻¹.

IMP-1 (Serratia marcescens) gave a kcat/Km ([8]; other: IMP-1) of 2.53e+07 M⁻¹ s⁻¹, a kcat ([5]; other: IMP-1) of 1200 s⁻¹ and a kcat/Km ([5]; other: IMP-1) of 2.81e+07 M⁻¹ s⁻¹. It also gave a kcat/Km ([6]; other: IMP-1) of 5.17e+08 M⁻¹ s⁻¹, a Km ([9]; other: IMP-1) of 55.7 ± 4.8 µM and a kcat ([9]; other: IMP-1) of 2790 s⁻¹. For the same compound, the kcat/Km ([9]; other: IMP-1) was 5.02e+07 M⁻¹ s⁻¹ and the kcat/Km ([7]; other: IMP-1) was 8.07e+08 M⁻¹ s⁻¹.

Work on `O=C(Cc1cccs1)N[C@@H]1C(=O)N2C(C(=O)O)=C(/C=C/c3ccc([N+](=O)[O-])cc3[N+](=O)[O-])CS[C@H]12` [nitrocefin] yielded a Km (NDM-1 [10]) of 8.8 ± 1.1 µM, a kcat (NDM-1 [10]) of 25.3 s^–1 and a Ki (SPM-1 [11]; apparent Ki value for substrate/product inhibition, table footnote) of 36.6 µM. It also gave a Ki (SPM-1 [11]; concentration at which SPM-1 is inhibited by nitrocefin/nitrocefin-derived species, substrate or product inhibition) of 36 µM.
